The text below walks through data of doi:10.1101/2020.08.05.237438 (bioRxiv, 2020).

Numbering of substitutions follows the chain as printed. Numbers in names are those of the source.

For experiment [1], the target named is recombinant caseinolytic protease ClpP1 of Leptospira interrogans (L. interrogans serovar Copenhageni, UniProt Q72SG6 1-198). Kind of experiment: dynamic light scattering.
Experiment [2] addresses recombinant ClpP1 S98A active-site mutant of Leptospira interrogans (L. interrogans serovar Copenhageni, UniProt Q72SG6 1-198, S98A). Kind of experiment: dynamic light scattering.

B1: recombinant ClpP2 S97A active-site mutant of Leptospira interrogans (enzyme, L. interrogans serovar Copenhageni, UniProt Q72R01 1-197, looked up)
chain: MPETEKIAEVFEELTGSKISKNFLDHRKIFLWGPVTDESSKDLVGKLLYLEMKDPGKKITFYINSPGGVVTSGMTVFDTIKMISSPVHTVCMGMAAAMGSVLLAAGTKGERSIWPNGKVMIHQPSIGGQIVAPATDLKIHAEEILKTKTKLNQILADACGHPISKLEEDTDRDYYMDAEEAIKYGIVDKLATKIDFN
For B1, the binding result in experiment [1] was “binds”.

B2: recombinant caseinolytic protease ClpP2 of Leptospira interrogans (enzyme, L. interrogans serovar Copenhageni, UniProt Q72R01 1-197, looked up)
chain: B1 chain with A97S
B2: the binding result in experiment [1] and in experiment [2] was “binds” throughout.
